This passage reports Kd results from paper PMC2728148.

Common to all, as to assay: EMSA
Background: In EMSA bound probe runs differently from free probe, usually more slowly.

For data set [1], the target named is T1, CSB wild-type (Homo sapiens, UniProt Q03468 1-1493).
Data set [2] addresses T1, CSB wild-type. The source holds these as a separate data set.
Data set [3] has as its target T1, CSB wild-type. The source holds these as a separate data set.
For data set [4], the target named is T1, CSB wild-type. This is another data set of the same source.

Read-outs that look alike come from different tables or passages of the source.

T1 sequence (Q03468 whole entry): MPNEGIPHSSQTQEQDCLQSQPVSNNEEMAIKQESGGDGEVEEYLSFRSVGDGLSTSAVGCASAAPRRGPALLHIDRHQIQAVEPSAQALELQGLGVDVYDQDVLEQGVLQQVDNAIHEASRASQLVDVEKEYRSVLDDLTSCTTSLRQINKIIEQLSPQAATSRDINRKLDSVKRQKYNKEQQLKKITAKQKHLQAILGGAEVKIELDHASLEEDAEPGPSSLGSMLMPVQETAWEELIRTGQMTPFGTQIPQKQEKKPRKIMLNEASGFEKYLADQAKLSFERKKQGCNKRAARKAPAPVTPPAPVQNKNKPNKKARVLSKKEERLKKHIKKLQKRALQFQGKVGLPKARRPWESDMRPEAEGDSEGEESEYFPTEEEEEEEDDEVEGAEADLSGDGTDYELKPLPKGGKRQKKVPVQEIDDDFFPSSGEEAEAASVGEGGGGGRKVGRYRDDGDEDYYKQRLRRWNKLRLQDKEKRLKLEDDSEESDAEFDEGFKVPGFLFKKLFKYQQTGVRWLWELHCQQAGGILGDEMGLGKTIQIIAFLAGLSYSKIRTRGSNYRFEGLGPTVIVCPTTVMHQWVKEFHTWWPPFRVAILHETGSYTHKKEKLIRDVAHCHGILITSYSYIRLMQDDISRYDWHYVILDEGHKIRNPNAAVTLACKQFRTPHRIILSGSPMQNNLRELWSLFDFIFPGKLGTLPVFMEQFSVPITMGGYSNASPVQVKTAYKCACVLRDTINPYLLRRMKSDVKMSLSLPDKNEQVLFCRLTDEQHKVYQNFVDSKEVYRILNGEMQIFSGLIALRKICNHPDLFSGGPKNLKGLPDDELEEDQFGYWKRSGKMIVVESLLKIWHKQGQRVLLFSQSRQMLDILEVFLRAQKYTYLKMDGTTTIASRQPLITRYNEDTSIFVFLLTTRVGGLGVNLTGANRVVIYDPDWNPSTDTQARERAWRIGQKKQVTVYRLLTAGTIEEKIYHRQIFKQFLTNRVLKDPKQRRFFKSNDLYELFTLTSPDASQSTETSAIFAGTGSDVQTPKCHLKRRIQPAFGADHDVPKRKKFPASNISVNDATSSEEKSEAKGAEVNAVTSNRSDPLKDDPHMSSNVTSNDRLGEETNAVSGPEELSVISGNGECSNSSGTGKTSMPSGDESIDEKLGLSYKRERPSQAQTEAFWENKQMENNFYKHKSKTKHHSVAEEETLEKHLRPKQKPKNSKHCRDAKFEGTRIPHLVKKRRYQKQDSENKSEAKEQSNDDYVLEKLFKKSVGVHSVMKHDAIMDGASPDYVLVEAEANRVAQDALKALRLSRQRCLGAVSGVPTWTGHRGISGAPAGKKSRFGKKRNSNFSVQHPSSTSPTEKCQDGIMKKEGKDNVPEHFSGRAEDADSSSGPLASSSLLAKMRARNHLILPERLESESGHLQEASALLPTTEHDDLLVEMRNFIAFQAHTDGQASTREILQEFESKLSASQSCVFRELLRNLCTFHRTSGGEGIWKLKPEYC

B1: DNA50/DNA49 fork (dsDNA)
DNA 1: GGGACGCGTCGGCCTGGCACGTCGGCCGCTGCGGCCAGGCACCCGATGGC
DNA 2: TTTGTTTGTTTGTTTGTTTGTTTGCCGACGTGCCAGGCCGACGCGTCCC
As a reminder, the Kd is the concentration at which binding is half-saturated. On to B1, for which the Kd with CSB wild-type [1] amounted to 5.9 ± 0.6 nM.

B2: DNA50/RNA49 fork (DNA:RNA)
DNA: GGGACGCGTCGGCCTGGCACGTCGGCCGCTGCGGCCAGGCACCCGATGGC
RNA: UUUGUUUGUUUGUUUGUUUGUUUGCCGACGUGCCAGGCCGACGCGUCCC
Molecule B2 gave a Kd in the data set with CSB wild-type [1] of 13.4 ± 3.3 nM. Compared with the last molecule, the Kd is about 2.3-fold higher.

B3: RNA50/RNA49 fork (dsRNA)
RNA 1: GGGACGCGUCGGCCUGGCACGUCGGCCGCUGCGGCCAGGCACCCGAUGGC
RNA 2: UUUGUUUGUUUGUUUGUUUGUUUGCCGACGUGCCAGGCCGACGCGUCCC
With B3, in the data set with CSB wild-type [1], the Kd was found to be 3.6 ± 1.5 nM. This Kd is about 3.7-fold lower than that of the molecule before.

B4: 34G/34C (dsDNA)
DNA 1: GTACCCGGGGATCCGTACGGCGCATCAGCTGCAG
DNA 2: CTGCAGCTGATGCGCCGTACGGATCCCCGGGTAC
As to B4, the Kd with CSB wild-type [2] is 10.7 ± 0.6 nM; in the data set with CSB wild-type [3], 13.7 ± 1.1 nM; with CSB wild-type [4], 20.5 ± 5.2 nM.
